Reference: patent publication US20130231277A1 (NEW YORK UNIVERSITY, published 2013)
One block for each binder: values may come before it.

Legend:
[1] = target: T1, ectodomain of murine βKlotho (F53 to L995 of SEQ ID NO: 218) with a C-terminal FLAG tag (murine, UniProt Q99N32 53-995); assay: SPR; βKlotho ectodomain immobilized, FGFR ligand-binding domain as analyte (FIG. 3B)
T1 construct: Expressed in HEK293 cells and purified from culture media; also called βKlotho ectodomain; not shown: C-terminal FLAG tag
T1 sequence: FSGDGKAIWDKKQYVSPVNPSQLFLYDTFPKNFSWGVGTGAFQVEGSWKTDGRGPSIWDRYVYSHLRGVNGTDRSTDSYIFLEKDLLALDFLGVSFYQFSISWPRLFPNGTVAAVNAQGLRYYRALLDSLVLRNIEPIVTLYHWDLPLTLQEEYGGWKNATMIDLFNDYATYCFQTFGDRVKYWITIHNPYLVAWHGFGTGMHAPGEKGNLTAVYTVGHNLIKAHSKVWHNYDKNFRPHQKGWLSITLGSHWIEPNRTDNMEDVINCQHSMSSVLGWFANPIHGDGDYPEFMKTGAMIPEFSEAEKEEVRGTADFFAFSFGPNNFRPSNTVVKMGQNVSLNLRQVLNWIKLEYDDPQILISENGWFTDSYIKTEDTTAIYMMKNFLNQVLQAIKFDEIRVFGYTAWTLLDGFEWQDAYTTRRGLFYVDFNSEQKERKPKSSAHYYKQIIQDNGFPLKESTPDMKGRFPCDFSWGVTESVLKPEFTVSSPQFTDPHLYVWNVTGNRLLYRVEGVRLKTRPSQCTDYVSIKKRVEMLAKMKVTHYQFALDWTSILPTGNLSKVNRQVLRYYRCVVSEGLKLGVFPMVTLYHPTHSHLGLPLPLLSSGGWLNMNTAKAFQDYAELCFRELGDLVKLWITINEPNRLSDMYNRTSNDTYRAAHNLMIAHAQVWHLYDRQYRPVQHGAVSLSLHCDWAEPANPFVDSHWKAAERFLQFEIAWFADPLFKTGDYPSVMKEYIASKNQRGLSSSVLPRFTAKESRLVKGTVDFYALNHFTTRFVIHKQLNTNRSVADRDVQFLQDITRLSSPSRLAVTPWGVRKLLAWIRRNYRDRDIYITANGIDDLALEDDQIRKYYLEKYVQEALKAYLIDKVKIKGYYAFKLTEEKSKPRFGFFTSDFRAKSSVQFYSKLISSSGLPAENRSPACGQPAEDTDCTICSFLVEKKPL
Experimental: FIGS. 3A-3G show the FGFR binding specificity profile of βKlotho. […] Where binding was observed, the dissociation constant (KD) was calculated from the saturation binding curve. The data shown in FIGS. 3A-G are representative of two to five independent experiments.
SPR experiments were performed on a Biacore 2000 instrument (Biacore AB), and all the protein-protein and protein-peptide interactions were studied at 25° C. in HBS-EP buffer (10 mM HEPES-NaOH, pH 7.4, 150 mM NaCl, 3 mM EDTA, 0.005% (v/v) polysorbate 20). Proteins were immobilized by amine coupling on flow channels of research grade CM5 chips (Biacore AB). Proteins were injected over a CM5 chip at a flow rate of 50 μl min⁻¹, and at the end of each protein injection (180 s), HBS-EP buffer (50 μl min⁻¹) was flowed over the chip to monitor dissociation for 180 s. In experiments where βKlotho binding to FGFR was analyzed, the chip surface was then regenerated by injecting 50 μl of 2.0 M NaCl in 10 mM sodium/potassium phosphate, pH 6.5. In experiments where α/βKlotho binding to FGF19/21/23 or binding of the FGFR1c-βKlotho complex to FGF21 was studied, 2.0 M NaCl in 10 mM sodium acetate, pH 4.5 was used for chip regeneration. To control for nonspecific binding in experiments where the ectodomain of αKlotho or βKlotho was immobilized on the chip, β-glucuronidase was coupled to the control flow channel of the chip (˜43-68 fmol/mm²).

[2] = target: T1, ectodomain of murine βKlotho (F53 to …); assay: SPR; FGF23 immobilized, increasing concentrations of βKlotho ectodomain passed over the chip (FIG. 4C)
Text: FGF19 was immobilized on a biosensor chip, and increasing concentrations of βKlotho ectodomain were passed over the chip. […] FGF21 was immobilized on a biosensor chip, and increasing concentrations of βKlotho ectodomain were passed over the chip. Note that for any given concentration of βKlotho, the binding response is greater on the FGF19 chip surface than on the FGF21 chip surface. Also note that the FGF19-βKlotho complex dissociates more slowly than the FGF21-βKlotho complex (compare the dissociation phases of the sensorgrams shown in (A) and (B)). […] FGF23 was immobilized on a biosensor chip, and increasing concentrations of βKlotho ectodomain were passed over the chip. […] FGF19 was immobilized on a biosensor chip, and increasing concentrations of αKlotho ectodomain were passed over the chip. […] FGF21 was immobilized on a biosensor chip, and increasing concentrations of αKlotho ectodomain were passed over the chip. […]
SPR experiments were performed on a Biacore 2000 instrument (Biacore AB), and all the protein-protein and protein-peptide interactions were studied at 25° C. in HBS-EP buffer (10 mM HEPES-NaOH, pH 7.4, 150 mM NaCl, 3 mM EDTA, 0.005% (v/v) polysorbate 20). […] In experiments where βKlotho binding to FGFR was analyzed, the chip surface was then regenerated by injecting 50 μl of 2.0 M NaCl in 10 mM sodium/potassium phosphate, pH 6.5.

[3] = target: T2, 1:1 binary complex of FGFR1c ligand-binding domain and βKlotho ectodomain (human; murine, UniProt P11362 142-365; Q99N32 53-995); assay: SPR competition; FGF21 immobilized, FGFR1c-βKlotho complex mixed with an equimolar amount of the chimera (FIG. 15F)
T2 construct: also called FGFR1c-βKlotho complex; FGFR1c-βKlotho; not shown: C-terminal FLAG tag
T2 sequence 1: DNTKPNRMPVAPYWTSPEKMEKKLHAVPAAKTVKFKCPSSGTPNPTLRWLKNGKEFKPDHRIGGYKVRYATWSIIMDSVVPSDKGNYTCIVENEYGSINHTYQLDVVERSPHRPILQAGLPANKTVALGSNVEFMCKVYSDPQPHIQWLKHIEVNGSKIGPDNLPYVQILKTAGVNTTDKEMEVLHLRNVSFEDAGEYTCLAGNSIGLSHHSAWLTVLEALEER
T2 sequence 2: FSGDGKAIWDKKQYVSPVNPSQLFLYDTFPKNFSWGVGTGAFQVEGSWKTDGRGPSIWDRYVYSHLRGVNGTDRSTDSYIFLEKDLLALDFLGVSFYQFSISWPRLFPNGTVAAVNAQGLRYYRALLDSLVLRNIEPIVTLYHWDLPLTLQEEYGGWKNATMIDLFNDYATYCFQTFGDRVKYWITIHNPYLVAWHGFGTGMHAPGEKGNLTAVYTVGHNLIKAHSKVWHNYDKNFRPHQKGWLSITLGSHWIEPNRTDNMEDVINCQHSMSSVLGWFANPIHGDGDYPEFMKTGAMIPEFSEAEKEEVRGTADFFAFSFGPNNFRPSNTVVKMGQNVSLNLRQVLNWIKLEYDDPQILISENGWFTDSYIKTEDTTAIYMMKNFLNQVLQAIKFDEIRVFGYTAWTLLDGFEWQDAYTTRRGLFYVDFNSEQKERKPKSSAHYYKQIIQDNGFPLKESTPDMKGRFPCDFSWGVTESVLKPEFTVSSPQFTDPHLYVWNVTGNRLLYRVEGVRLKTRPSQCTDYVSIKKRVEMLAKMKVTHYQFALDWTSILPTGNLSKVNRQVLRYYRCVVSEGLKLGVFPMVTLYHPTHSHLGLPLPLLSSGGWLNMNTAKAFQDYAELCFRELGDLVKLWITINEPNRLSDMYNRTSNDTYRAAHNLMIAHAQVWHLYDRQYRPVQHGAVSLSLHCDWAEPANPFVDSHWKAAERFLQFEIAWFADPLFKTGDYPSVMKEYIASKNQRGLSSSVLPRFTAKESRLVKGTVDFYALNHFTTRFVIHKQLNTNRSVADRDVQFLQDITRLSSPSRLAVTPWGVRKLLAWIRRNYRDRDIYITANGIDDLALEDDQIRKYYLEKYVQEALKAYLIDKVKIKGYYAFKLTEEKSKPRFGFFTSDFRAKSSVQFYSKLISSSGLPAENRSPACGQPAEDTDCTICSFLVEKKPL
Experimental: To examine whether mutants of FGF21 or chimeras composed of a N-terminal portion of FGF21 and a C-terminal portion of FGF19 can compete with wild-type ligand for binding to the FGFR1c-βKlotho complex, FGF21 was immobilized on a chip (˜30 fmol/mm² of flow channel). Increasing concentrations of FGF21 mutant or chimera (0-60 nM) were mixed with a fixed concentration of 1:1 complex of FGFR1c ligand-binding domain and βKlotho ectodomain (10 nM), and the mixtures were passed over the chip. As a control, competition of FGF21 in solution with immobilized FGF21 for binding to the FGFR1c-βKlotho complex was studied. The results are shown in FIGS. 14A to 14D and 15A to 15F.
A competition binding assay was selected over a direct binding assay because its binding data are not confounded by the effects that the coupling of one binding partner to the chip might have. Specifically, it was examined whether a mutant or chimera can compete with native FGF21 for binding to the FGFR1c-βKlotho complex. […] FGF21 was immobilized on a biosensor chip, and mixtures of a fixed concentration of FGFR1c-βKlotho complex with increasing concentrations of either FGF21 mutant or FGF21/FGF19 chimera were passed over the chip. As a control, competition of FGF21 in solution with immobilized FGF21 for binding to the FGFR1c-βKlotho complex was studied.

- binding result [1]: binds
B1: ligand-binding domain of human FGFR2c (N149 to E368 of SEQ ID NO: 226) (receptor)
chain: NNKRAPYWTNTEKMEKRLHAVPAANTVKFRCPAGGNPMPTMRWLKNGKEFKQEHRIGGYKVRNQHWSLIMESVVPSDKGNYTCVVENEYGSINHTYHLDVVERSPHRPILQAGLPANASTVVGGDVEFVCKVYSDAQPHIQWIKHVEKNGSKYGPDGLPYLKVLKAAGVNTTDKEIEVLYIRNVTFEDAGEYTCLAGNSIGISFHSAWLTVLPAPGREKE

- binding result [2]: no binding
B2: human FGF23, secreted bioactive form (Y25 to I251 of SEQ ID NO: 223) with arginines 176 and 179 replaced with glutamine (ligand)
chain: YPNASPLLGSSWGGLIHLYTATARNSYHLQIHKNGHVDGAPHQTIYSALMIRSEDAGFVVITGVMSRRYLCMDFRGNIFGSHYFDPENCRFQHQTLENGYDVYHSPQYHFLVSLGRAKRAFLPGMNPPPYSQFLSRRNEIPLIHFNTPIPRQHTQSAEDDSERDPLNVLKPRARMTPAPASCSQELPSAEDNSPMASDPLGVVRGGRVNTHAGGTGPEGCRPFAKFI
notes: The cleavage site was mutated to minimize proteolysis; Used as specificity control on the SPR chip

B3: FGF21^29-197/FGF19^204-216 chimera (H29 to V197 of human FGF21 and T204 to K216 of human FGF19; SEQ ID NO: 205) (ligand)
chain: HPIPDSSPLLQFGGQVRQRYLYTDDAQQTEAHLEIREDGTVGGAADQSPESLLQLKALKPGVIQILGVKTSRFLCQRPDGALYGSLHFDPEACSFRELLLEDGYNVYQSEAHGLPLHLPGNKSPHRDPAPRGPARFLPLPGLPPALPEPPGILAPQPPDVGSSDPLSMVTGLEAVRSPSFEK
notes: Chimera of human FGF21 and human FGF19, purified from E. coli inclusion bodies; also called FGF21^C-tail variant 19-41; printed once as FGF21^29-97/FGF19^204-216
- percent inhibition of FGFR1c-βKlotho binding to immobilized FGF21 at an equimolar ratio of chimera to complex [3]: ≤ 75%
